Patent US20200223906A1 (Adimab, published 2020)
Where a chain is given by its changes, count along the chain named.

B1: ADI-18900 (antibody, V domains shown)
VH: EVQLLESGGALVEPGGSLRLSCAASGFSFNTYSMNWVRQGPGKGLEWVATISTSTAGSYYADSVRGRFTISRDNSKNTLYLQMNSLRVEDTAVYYCARDQEVELIDDAFDFWGRGTMVTVSS
VL: DIVMTQTHSSLSASVGDRVTITCRASQSISIWVAWYQQKPGKAPNLLIYKASSLQSGVPSRFSGSGSGTEFTLTISSLQPDDSATYYCQQYYTYYSFGQGTKLEIK
notes: full-length IgG from yeast
B2: ADI-18920 (antibody, V domains shown)
VH: EVQLLESGGGVVQPGRSLRLSCAASGFTFSSYAMHWVRQTPDKGLEWVALISDDGRNEYYADSVQGRFTISRDKSKNTLHLEMNSLRAEDTAVYYCAKVRNEAWELLGNDDALDVWGQGTMVTVSS
VL: QSVLTQPPSVSAAPGQKVTISCSGTSFNIGSNYVSWYQLLPGTAPKLLIFDNYKRPSGIPDRFSGSWSGTSATLAISGLQTGDEAEYFCGTWDTSLRAGVFGGGTKLTVL
notes: full-length IgG from yeast; also called Antibody Number 274; Ab # 274
B3: ADI-18912 (antibody, V domains shown)
VH: EVQLVESGGGLVKPGGALRLSCAASGFSFRSYSMNWVRQAPGKGLEWVSSISSSSNYINYADSVKGRFSISRDNAKNSLYLQMNSLRAEDTAVYYCARDLLPVERGPAFDIWGQGTMVTVSS
VL: SYELTQPPSVSGAPGQRVTISCTGSSSNIGAGYDVHWFQQLPGAAPKLLIYANSNRPSGVPDRFSGSKSGTSASLAITGLQAEDEADYYCQSYDSRLGGSVFGGGTKVTVL
notes: full-length IgG from yeast
B4: ADI-18913 (antibody, V domains shown)
VH: QVQLVQSGPEVKKPGESLTISCKGSGYDFSNNWIGWVRQMPGKGLEWMGIIYPGDSDTRYSPSFQGQVTLSVDKSISTAYLQWRSLKASDSGIYYCARQIGGLVCSSESCYFYGMDVWGQGTTVTVSS
VL: DIQLTQSPSSLSASVGGRVTITCRASQSISNYLNWYQHKPGKAPELLIYGASSLQSGVPSRFSGSGSGTDFTLTISSLQPEDFATYYCQQSDTTPFTFGQGTKVDIK
notes: full-length IgG from yeast
B5: ADI-18916 (antibody, V domains shown)
VH: B4 VH
VL: B4 VL with Q3R, L4V, V104L, D105E
notes: full-length IgG from yeast; also called Antibody Number 270; Ab # 270
B6: ADI-18919 (antibody, V domains shown)
VH: QVQLQESGPGLEKPSQTLSLTCTVSRGSIRIGGYFWSWIRQHPGKGLEWLGYISNDGATDYNPSLRSRLAISADTSKNQFSLTLRSVTAADTAIYYCARTSYAGRMLDRWGQGILVTVSS
VL: DIRVTQSPVSLPVTPGEPASISCRSSQSLLHSNGNNYLDWYLQKPGQSPQLLIYMGSYRASGVPDRFSGSGSGTDFTLKISRVEAEDVGVYYCMQGLQIPWTFGQGTKLEIK
notes: full-length IgG from yeast
B7: ADI-18902 (antibody, V domains shown)
VH: QVQLQESGPGLVKPSETLSLTCTVSGGSISGYYWSWIRQPPGRGLEWIGFIYYSGSTSYDSSLKSRVTISVDTSKNQFSLNLSSVTAADTAVYYCARSTWDYGDHFPFDYWGQGTLVTVSS
VL: SYELTQPPSVSVAPGKTARITCGGNNIGIKDVHWYQLRPGQAPVLVISYDSDRPSGIPERFSGSNSGNTATLTISRVEAGDEADYFCQVWDSSPDHPYVFGTGTKLTVL
notes: full-length IgG from yeast
B8: ADI-18877 (antibody, V domains shown)
VH: QVQLVQSGTEVKKPGASVKVSCKAAGYTFSNYGVSWVRQAPGQGLEWMGWISAYNGNTKFAQKVQGRLTMTTDTSTSTAYMELRNLRSDDTAVYYCARESGATAAAMFDYWGQGTLVTVSS
VL: ETTLTQSPLSLPVTLGQPASISCRSSQSLEYSDGNIYLSWFQQRPGQSPRRLIYKVSHRDSGVPDRFSGSGSGTDFTLKIARVEAEDVAVYYCMQAIHWPRTFGQGTKVDIK
notes: full-length IgG from yeast; also called Antibody Number 234; Ab # 234
B9: ADI-18898 (antibody, V domains shown)
VH: B8 VH
VL: B8 VL with T2I, T3V, D110E
notes: full-length IgG from yeast
B10: ADI-18892 (antibody, V domains shown)
VH: QVQLVQSGAEVKEPGASVRVSCKASGYTFTSYGISWVRQAPGQGLEWMGWISAYNGNTNYAQKFQGRVTVTTDTSTSAAYMELRSLRSDDTAIYYCARDSFSLTGAGFPDYWGQGTLVTVSS
VL: EIVMTQSPLSLPVTLGQPASISCRSSQSLVYSDGNTYLNWFQQRPGQSPRRLIYKVSNRDSGVPDRFSGSGSDTDFTLKISRVEAEDVGVYYCMQATQWPRTFGQGTKVEIK
notes: full-length IgG from yeast
B11: ADI-18908 (antibody, V domains shown)
VH: QVQLVESGGGLVKPGGSLRLSCAASGFTFSSFGMHWVRQAPGQGLEWVASITGGSSYINYADSVKGRFTISRDNAKKSLSLQMKNLRAEDTAEYYCVRGVLPGGTGGGWFDSWGQGTLVTVSS
VL: QSVLTQPPSMSGAPGQRVTISCTGTSSNIGAGYDVQWYQQFPGTAPKLLISGNNNRPSGVPDRFSGSKSGASASLAITGLQAEDEADYYCQSYDYSLNWVFGGGTKLTVL
notes: full-length IgG from yeast
B12: ADI-18917 (antibody, V domains shown)
VH: B11 VH with Q1E, G104D
VL: B11 VL
notes: full-length IgG from yeast; also called Antibody Number 271; Ab # 271
B13: ADI-18915 (antibody, V domains shown)
VH: QVQLVQSGGGLVKPGGSLRLSCAASGFTFSKAWMNWVRQAPGKGLEWVGRIRSKTDGGTADYAAPVKGRFTMSRDDSKNTLYLQMNSLKTEDTAVYYCATDSRRLYDSRGFYSSAFDVWGQGTTVTVSS
VL: QSVLTQPPSVSGAPGQRVTISCTGSSSNIGAGYDVHWYQHLPGTAPKVLIYGNNNRPSGVPDRFSGSKSGTSASLAITGLQAEDEADYYCQSYDDSLTGWVFGGGTKVTVL
notes: full-length IgG from yeast; also called Antibody Number 269; Ab # 269
B14: ADI-18893 (antibody, V domains shown)
VH: EVQLLESGGGLVKPGGSLRLSCVASGFTFSSYNINWVRQAPGKGLEWVSSISGGSNYIDYADSVKGRFTISRDNAKNSLYLQMNNLRAEDTAVYYCARLGYGGNPELDYWGQGTLVTVSS
VL: QSVLTQPPSVSGAPGQRVTISCTGSSSNIGAGYDVHWYQQRPGTAPKLLIYANNNRPSGVPDRFSGSKSGTSASLAITGLQAEDEADYYCQSYDLSLSSSRVFGGGTKLTVL
notes: full-length IgG from yeast; also called Antibody Number 248; Ab # 248
B15: ADI-18923 (antibody, V domains shown)
VH: EVQLLESGGGLVKPGGSLRLSCAASGFTFSSYSMNWVRQAPGKGLEWVSSISSSSSYIYYADSVKGRFTISRDNAKNSLYLQMNSLRAEDTAVYYCARDWPNSSSSPNWFDPWGQGTLVTVSS
VL: B14 VL with R41L, A52G, N54S, L95S, S99G, S100F, R101Y, G105T
notes: full-length IgG from yeast
B16: ADI-18890 (antibody, V domains shown)
VH: QVQLVQSGAEVKRPGSSVKVSCKASGGTFRGYHISWLRQAPGQGLEWLGGITHLFGTVSYAPKFQGRVTITADASTGTLYMVLNSLKPEDTAIYYCARDAYEVWTGSYLPPFDYWGQGTLVTVSS
VL: ETTLTQSPGTLSLSPGERATLSCRASQTVTSNYLAWYQQKPGQAPRLLIYDALTRATGIPDRFSGSGSGTDFTLTISRLEPEDFALYYCQQYGSSFLTFGGGTKVDIK
notes: full-length IgG from yeast
B17: ADI-18891 (antibody, V domains shown)
VH: B16 VH with V5Q, Q6E, R13K, T28A, R30S, G31S, H33A, L37V
VL: B16 VL with T2I, T3V, V105L, D106E
notes: full-length IgG from yeast; also called Antibody Number 246; Ab # 246

target: RSV F protein of subtype A (strain A2) on recombinant mKate-RSV virus (Respiratory syncytial virus subtype A …, UniProt P03420 26-574); assay: cell-based or functional assay

Binder	Neut IC50 (µg/ml) subtype A [µg/mL]
B1	0.035
B2	0.041
B3	0.024
B4	< 0.01
B5	< 0.01
B6	0.123
B7	0.024
B8	0.41
B9	0.03
B10	0.018
B11	0.018
B12	0.024
B13	1.2
B14	0.123
B15	0.078
B16	0.041
B17	0.012

target: RSV F protein of subtype B (18537) on recombinant mKate-RSV virus (Respiratory syncytial virus subtype B …, UniProt P13843 26-574); assay: cell-based or functional assay

Binder	Neut IC50 (µg/ml) subtype B [µg/mL]
B1	0.059
B2	0.049
B3	0.061
B4	< 0.01
B5	< 0.01
B6	0.261
B7	0.15
B8	0.13
B9	0.097
B10	0.117
B11	0.095
B12	0.091
B13	0.021
B14	0.182
B15	0.147
B16	0.041
B17	0.026

target: T1, RSV F subtype A, furin-cleaved ectodomain stabilized in the prefusion conformation (DS-Cav1) (Respiratory syncytial virus subtype A, UniProt P03420 26-524); assay: BLI, IgG on AHQ sensor, 100 nM antigen
T1 construct: extracellular domain; Trimeric soluble antigen; also called Prefusion subtype A

Binder	Kd [nM]
B1	1.19
B2	0.678
B3	0.258
B4	0.568
B5	0.585
B6	0.202
B7	0.107
B8	0.303
B9	0.305
B10	0.217
B11	0.302
B12	0.356
B13	28.1
B14	0.245
B15	0.517
B16	0.489
B17	0.534

target: T2, RSV F subtype B, furin-cleaved ectodomain stabilized in the prefusion conformation (DS-Cav1) (Respiratory syncytial virus subtype B); assay: BLI, IgG on AHQ sensor, 100 nM antigen
T2 construct: extracellular domain; Trimeric soluble antigen; also called Prefusion subtype B

Binder	Kd [nM]
B1	0.331
B2	0.0977
B3	0.286
B4	0.471
B5	0.465
B6	0.163
B7	0.101
B8	0.383
B9	0.325
B10	0.253
B11	0.352
B12	0.332
B13	0.421
B14	0.278
B15	1.79
B16	0.458
B17	0.513
